Assay results from patent US10434088B2, “Methods related to administering immunosuppressants and therapeutic macromolecules at a reduced pharmacodynamically effective dose” (Selecta Biosciences, Inc., priority 2013, dated 2019).

Tests used:
[1] = test system: anti-OVA antibody (Ab) response; assay: Example 2: anti-OVA antibody response to aggOVA; assay type: in vivo, C57BL/6 mice; conditions: 25 μg aggOVA i.v. d0, 14, 28 then boosts; nanocarriers i.v. (100 μg rapamycin) concomitantly d0, 14, 28 only; days 25, 40 and next 60 days; FIG. 3
[2] = test system: anti-OVA IgG antibody response; assay: Example 9: anti-OVA IgG antibody titers; assay type: in vivo, C57BL/6; conditions: 2.5 μg pOVA i.v. weekly; 0.2 mg nanocarrier admixed days 0, 7, 14; FIG. 11
Description: The control group of C57BL/6 age-matched (5-6 weeks) female were injected i.v. in the tail vein with 2.5 μg of an immunogenic form of particulate Ovalbumin (pOVA) and 2 μg of Keyhole Limpet Hemocyanin (KLH) s.c. in the hind limb once a week for 49 days (d0, 7, 14, 20, 28, 35, 42, 49).

Molecule | anti-OVA antibody (IgG) response [1] | anti-OVA IgG antibody titers at day 54 [2]
aggOVA: chicken ovalbumin induced using high sheer to form aggregates to increase its immunogenicity (protein, UniProt P01012 2-386, looked up, shear-induced aggregates) Ovalbumin: GSIGAASMEFCFDVFKELKVHHANENIFYCPIAIMSALAMVYLGAKDSTRTQINKVVRFDKLPGFGDSIEAQCGTSVNVHSSLRDILNQITKPNDVYSFSLASRLYAEERYPILPEYLQCVKELYRGGLEPINFQTAADQARELINSWVESQTNGIIRNVLQPSSVDSQTAMVLVNAIVFKGLWEKAFKDEDTQAMPFRVTEQESKPVQMMYQIGLFRVASMASEKMKILELPFASGTMSMLVLLPDEVSGLEQLESIINFEKLTEWTSSNVMEERKIKVYLPRMKMEEKYNLTSVLMAMGITDVFSSSANLSGISSAESLKISQAVHAAHAEINEAGREVVGSAEAGVDAASVSEEFRADHPFLFCIKHIATNAVLFFGRCVSP | prominent anti-OVA antibody (Ab) response | 
pOVA: immunogenic form of particulate Ovalbumin (protein, UniProt P01012 2-386, looked up, particulate form, immunogenic form of particulate Ovalbumin) Ovalbumin: GSIGAASMEFCFDVFKELKVHHANENIFYCPIAIMSALAMVYLGAKDSTRTQINKVVRFDKLPGFGDSIEAQCGTSVNVHSSLRDILNQITKPNDVYSFSLASRLYAEERYPILPEYLQCVKELYRGGLEPINFQTAADQARELINSWVESQTNGIIRNVLQPSSVDSQTAMVLVNAIVFKGLWEKAFKDEDTQAMPFRVTEQESKPVQMMYQIGLFRVASMASEKMKILELPFASGTMSMLVLLPDEVSGLEQLESIINFEKLTEWTSSNVMEERKIKVYLPRMKMEEKYNLTSVLMAMGITDVFSSSANLSGISSAESLKISQAVHAAHAEINEAGREVVGSAEAGVDAASVSEEFRADHPFLFCIKHIATNAVLFFGRCVSP |  | robust immune response
